Assay results reported in patent publication US20200317768A1 (published 2020).

T1: cynomolgus monkey FcγRIIIaS extracellular domain with C-terminal His-tag (cynomolgus monkey, UniProt Q8SPW2 21-206 at identity 1.00))
T1 construct: Expressed in FreeStyle 293 cells and purified; also called cyno FcγRIIIaS; cynoFcγRIIIaS; not shown: C-terminal His-tag
T1 chain: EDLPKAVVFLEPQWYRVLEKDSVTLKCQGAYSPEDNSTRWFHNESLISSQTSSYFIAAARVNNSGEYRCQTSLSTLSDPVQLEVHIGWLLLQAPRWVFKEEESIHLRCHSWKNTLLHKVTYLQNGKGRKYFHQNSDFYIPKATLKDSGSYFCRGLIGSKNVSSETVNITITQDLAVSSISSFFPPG

T2: human FcγRIIaR extracellular domain with C-terminal His-tag (human, UniProt P12318 34-217)
T2 construct: Expressed in FreeStyle 293 cells and purified; also called human FcγRIIa (type R); FcgRIIaR; not shown: C-terminal His-tag
T2 chain: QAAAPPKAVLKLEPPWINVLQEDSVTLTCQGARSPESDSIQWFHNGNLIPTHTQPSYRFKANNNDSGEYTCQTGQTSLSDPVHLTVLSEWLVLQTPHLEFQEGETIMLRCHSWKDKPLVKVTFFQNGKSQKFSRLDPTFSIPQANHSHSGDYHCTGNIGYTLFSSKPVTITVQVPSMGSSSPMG

T3: human FcγRIIb extracellular domain with C-terminal His-tag (human, UniProt P31994 43-217)
T3 construct: Expressed in FreeStyle 293 cells and purified; also called humanFcgRIIb; not shown: C-terminal His-tag
T3 sequence: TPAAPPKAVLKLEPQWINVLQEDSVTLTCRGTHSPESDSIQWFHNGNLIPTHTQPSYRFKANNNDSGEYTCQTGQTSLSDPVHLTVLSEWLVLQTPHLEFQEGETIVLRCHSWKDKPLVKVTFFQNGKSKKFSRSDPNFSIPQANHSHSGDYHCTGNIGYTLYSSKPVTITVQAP

T4: human FcγRIIaH extracellular domain with C-terminal His-tag (human, UniProt P12318 34-217)
T4 construct: Expressed in FreeStyle 293 cells and purified; also called human FcγRIIa (type H); FcgRIIaH; not shown: C-terminal His-tag
T4 sequence: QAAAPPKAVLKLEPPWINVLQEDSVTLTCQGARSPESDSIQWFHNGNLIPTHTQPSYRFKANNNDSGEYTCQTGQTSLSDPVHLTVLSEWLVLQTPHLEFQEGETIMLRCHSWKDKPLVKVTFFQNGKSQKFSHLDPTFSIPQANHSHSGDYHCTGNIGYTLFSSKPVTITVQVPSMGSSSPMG

T5: cynomolgus monkey FcγRIIa1 extracellular domain with C-terminal His-tag (cynomolgus monkey)
T5 construct: Expressed in FreeStyle 293 cells and purified; also called cyno FcγRIIa1; cynoFcgRIIa1; not shown: C-terminal His-tag
T5 chain: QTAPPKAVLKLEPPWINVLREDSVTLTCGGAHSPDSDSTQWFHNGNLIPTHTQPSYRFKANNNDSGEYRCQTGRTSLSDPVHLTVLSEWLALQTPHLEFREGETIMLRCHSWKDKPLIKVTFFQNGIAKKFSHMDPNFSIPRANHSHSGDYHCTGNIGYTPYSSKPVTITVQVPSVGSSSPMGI

T6: cynomolgus monkey FcγRIIa2 extracellular domain with C-terminal His-tag (cynomolgus monkey)
T6 construct: Expressed in FreeStyle 293 cells and purified; also called cyno FcγRIIa2; cynoFcgRIIa2; not shown: C-terminal His-tag
T6 chain: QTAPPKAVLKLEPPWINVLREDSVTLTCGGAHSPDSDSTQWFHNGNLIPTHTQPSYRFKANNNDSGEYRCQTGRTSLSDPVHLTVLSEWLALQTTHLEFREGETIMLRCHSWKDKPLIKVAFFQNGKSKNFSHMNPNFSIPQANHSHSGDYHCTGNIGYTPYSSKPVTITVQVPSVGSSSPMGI

T7: cynomolgus monkey FcγRIIa2 extracellular domain, His-tagged (cynomolgus monkey)
T7 construct: also called cyno FcgRIIa2; cynoFcγRIIa2; not shown: His-tag added to the C-terminus
T7 chain: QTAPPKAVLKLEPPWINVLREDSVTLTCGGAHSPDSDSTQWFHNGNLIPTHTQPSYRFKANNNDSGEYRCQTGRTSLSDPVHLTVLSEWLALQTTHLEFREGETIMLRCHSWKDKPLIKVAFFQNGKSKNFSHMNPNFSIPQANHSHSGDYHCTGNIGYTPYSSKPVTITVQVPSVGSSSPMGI

T8: human FcγRIIaR extracellular domain, His-tagged (human, UniProt P12318 34-217)
T8 construct: also called human FcgRIIaR; FcγRIIa (type R); not shown: His-tag added to the C-terminus
T8 chain: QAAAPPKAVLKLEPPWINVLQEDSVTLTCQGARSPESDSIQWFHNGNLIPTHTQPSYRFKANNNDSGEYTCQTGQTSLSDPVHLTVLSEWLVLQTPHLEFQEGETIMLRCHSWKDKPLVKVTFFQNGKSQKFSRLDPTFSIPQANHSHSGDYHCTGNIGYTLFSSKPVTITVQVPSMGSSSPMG

B1: M103205H795-MY171 / M103202L889-SK1 (antibody, human IgG1, kappa)
heavy: QVTLKESGPVLVKPTETLTLTCTVSGIDLSHDDISWVRQAPGKGLEWVGIISYAGSTYYASWAKGRLTISKDTSKNQVVLTMTNMDPVDTATYYCARGVPAYSHGGDLWGQGTLVTVSSASTKGPSVFPLAPSSKSTSGGTAALGCLVKDYFPEPVTVSWNSGALTSGVHTFPAVLQSSGLYSLSSVVTVPSSSLGTQTYICNVNHKPSNTKVDKKVEPKSCDKTHTCPPCPAPELLNGPSVFLFPPKPKDTLMISRTPEVTCVVVDVSEEDPEVKFNWYVDGVEVHNAKTKPREEQYNSTYRVVSVLTVLHQDWLNGKEYKCKVSNKALPAPIEKTISKAKGQPREPQVYTLPPSREEMTKNQVSLTCLVKGFYPSDIAVEWESNGQPENNYKTTPFVLDSDGSFFLYSKLTVDKSRWQQGNVFSCSVMHEALHNHYTQKSLSLSP
light: DIVMTQSPATLSLSPGERATLSCTSSQSVYHANWLSWFQQKPGQPPKLLIYWASTLAYGVPSRFSGSGSGTDFTLTISSLQPEDAATYYCAGGYGGGRYAFGQGTKVEIKRTVAAPSVFIFPPSDEQLKSGTASVVCLLNNFYPREAKVQWKVDNALQSGNSQESVTEQDSKDSTYSLSSTLTLSKADYEKHKVYACEVTHQGLSSPVTKSFNRGEC
notes: Position 396 variant derived from MY052, expressed with M103202L889-SK1 as light chain
B2: MS1032LO06-SG1 (M103205H795-SG1/M103202L889-SK1) (antibody, human IgG1, kappa)
heavy: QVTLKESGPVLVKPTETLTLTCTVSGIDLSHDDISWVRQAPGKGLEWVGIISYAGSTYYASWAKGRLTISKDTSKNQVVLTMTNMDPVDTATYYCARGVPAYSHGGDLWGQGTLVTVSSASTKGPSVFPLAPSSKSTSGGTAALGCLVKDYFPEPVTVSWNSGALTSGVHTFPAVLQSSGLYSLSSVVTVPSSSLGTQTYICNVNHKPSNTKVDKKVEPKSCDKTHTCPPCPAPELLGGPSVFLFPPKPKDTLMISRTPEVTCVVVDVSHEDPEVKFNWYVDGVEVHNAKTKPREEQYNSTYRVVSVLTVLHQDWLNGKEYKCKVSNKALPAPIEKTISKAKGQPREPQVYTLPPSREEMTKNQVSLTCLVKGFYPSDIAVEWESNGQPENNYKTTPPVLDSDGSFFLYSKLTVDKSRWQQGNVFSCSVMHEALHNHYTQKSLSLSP
light: DIVMTQSPATLSLSPGERATLSCTSSQSVYHANWLSWFQQKPGQPPKLLIYWASTLAYGVPSRFSGSGSGTDFTLTISSLQPEDAATYYCAGGYGGGRYAFGQGTKVEIKRTVAAPSVFIFPPSDEQLKSGTASVVCLLNNFYPREAKVQWKVDNALQSGNSQESVTEQDSKDSTYSLSSTLTLSKADYEKHKVYACEVTHQGLSSPVTKSFNRGEC
notes: Anti-latent myostatin antibody; Parent of the Fc variants; copies: 2 + 2
B3: M103205H795-MY260/M103202L889-SK1 (antibody, human IgG1, kappa)
heavy: QVTLKESGPVLVKPTETLTLTCTVSGIDLSHDDISWVRQAPGKGLEWVGIISYAGSTYYASWAKGRLTISKDTSKNQVVLTMTNMDPVDTATYYCARGVPAYSHGGDLWGQGTLVTVSSASTKGPSVFPLAPSSKSTSGGTAALGCLVKDYFPEPVTVSWNSGALTSGVHTFPAVLQSSGLYSLSSVVTVPSSSLGTQTYICNVNHKPSNTKVDKKVEPKSCDKTHTCPPCPAPELLMGPSVFLFPPKPKDTLMISRTPEVTCVVVDVSDEDPEVKFNWYVDGVEVHNAKTKPREEQYNSTYRVVSVLTVLHQDWLNGKEYKCKVSNKALPKPIEKTISKAKGQPREPQVYTLPPSREEMTKNQVSLTCLVKGFYPSDIAVEWESNGQPENNYKTTPPVLDSDGSFFLYSKLTVDKSRWQQGNVFSCSVMHEALHNHYTQKSLSLSP
light: DIVMTQSPATLSLSPGERATLSCTSSQSVYHANWLSWFQQKPGQPPKLLIYWASTLAYGVPSRFSGSGSGTDFTLTISSLQPEDAATYYCAGGYGGGRYAFGQGTKVEIKRTVAAPSVFIFPPSDEQLKSGTASVVCLLNNFYPREAKVQWKVDNALQSGNSQESVTEQDSKDSTYSLSSTLTLSKADYEKHKVYACEVTHQGLSSPVTKSFNRGEC
notes: copies: 2 + 2
B4: M103205H795-MY261/M103202L889-SK1 (antibody, human IgG1, kappa)
heavy: QVTLKESGPVLVKPTETLTLTCTVSGIDLSHDDISWVRQAPGKGLEWVGIISYAGSTYYASWAKGRLTISKDTSKNQVVLTMTNMDPVDTATYYCARGVPAYSHGGDLWGQGTLVTVSSASTKGPSVFPLAPSSKSTSGGTAALGCLVKDYFPEPVTVSWNSGALTSGVHTFPAVLQSSGLYSLSSVVTVPSSSLGTQTYICNVNHKPSNTKVDKKVEPKSCDKTHTCPPCPAPELLHGPSVFLFPPKPKDTLMISRTPEVTCVVVDVSDEDPEVKFNWYVDGVEVHNAKTKPREEQYNSTYRVVSVLTVLHQDWLNGKEYKCKVSNKALPKPIEKTISKAKGQPREPQVYTLPPSREEMTKNQVSLTCLVKGFYPSDIAVEWESNGQPENNYKTTPPVLDSDGSFFLYSKLTVDKSRWQQGNVFSCSVMHEALHNHYTQKSLSLSP
light: DIVMTQSPATLSLSPGERATLSCTSSQSVYHANWLSWFQQKPGQPPKLLIYWASTLAYGVPSRFSGSGSGTDFTLTISSLQPEDAATYYCAGGYGGGRYAFGQGTKVEIKRTVAAPSVFIFPPSDEQLKSGTASVVCLLNNFYPREAKVQWKVDNALQSGNSQESVTEQDSKDSTYSLSSTLTLSKADYEKHKVYACEVTHQGLSSPVTKSFNRGEC
notes: copies: 2 + 2
B5: M103205H795-MY201/M103202L889-SK1 (antibody, human IgG1, kappa)
heavy: QVTLKESGPVLVKPTETLTLTCTVSGIDLSHDDISWVRQAPGKGLEWVGIISYAGSTYYASWAKGRLTISKDTSKNQVVLTMTNMDPVDTATYYCARGVPAYSHGGDLWGQGTLVTVSSASTKGPSVFPLAPSSKSTSGGTAALGCLVKDYFPEPVTVSWNSGALTSGVHTFPAVLQSSGLYSLSSVVTVPSSSLGTQTYICNVNHKPSNTKVDKKVEPKSCDKTHTCPPCPAPELLNGPSVFLFPPKPKDTLMISRTPEVTCVVVDVSDEDPEVKFNWYVDGVEVHNAKTKPREEQYNSTYRVVSVLTVLHQDWLNGKEYKCKVSNKALPKPIEKTISKAKGQPREPQVYTLPPSREEMTKNQVSLTCLVKGFYPSDIAVEWESNGQPENNYKTTPPVLDSDGSFFLYSKLTVDKSRWQQGNVFSCSVMHEALHNHYTQKSLSLSP
light: DIVMTQSPATLSLSPGERATLSCTSSQSVYHANWLSWFQQKPGQPPKLLIYWASTLAYGVPSRFSGSGSGTDFTLTISSLQPEDAATYYCAGGYGGGRYAFGQGTKVEIKRTVAAPSVFIFPPSDEQLKSGTASVVCLLNNFYPREAKVQWKVDNALQSGNSQESVTEQDSKDSTYSLSSTLTLSKADYEKHKVYACEVTHQGLSSPVTKSFNRGEC
notes: Fc variant G236N/H268D/A330K (EU numbering) of SG1; also called MS1032LO06-MY201; copies: 2 + 2

Tests used:
[1] = molecular target: T1, cynomolgus monkey FcγRIIIaS …; experiment: SPR (Biacore); KD of SG1 divided by KD of the variant for this FcgR;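 further: relative to parent M103205H795-SG1 carrying the SG1 human heavy chain constant region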
Protocol: (§1) The kinetic analysis of interactions between these antibodies and FcγR was carried out using BIACORE® T200 or BIACORE® 4000 (GE Healthcare). HBS-EP+ (GE Healthcare) was used as the running buffer, and the measurement temperature was set to 25° C. A chip produced by immobilizing Protein A. Protein A/G or mouse anti-human IgG kappa light chain (BD Biosciences) onto a Series S Sensor Chip CM4 or CM5 (GE Healthcare) by the amine-coupling method was used. […] After the measurement, the antibody captured on the chip was washed off by allowing reaction with 10 mM glycine-HCl, pH1.5 and 25 mM NaOH so that the chip was regenerated and used repeatedly. The sensorgrams obtained as measurement results were analyzed by the 1:1 Langmuir binding model using the BIACORE® Evaluation Software to calculate the binding rate constant ka (L/mol/s) and dissociation rate constant kd (l/s), and the dissociation constant KD (mol/L) was calculated from these values. […] Regarding such interactions, KD values were calculated using the following 1:1 binding model described in BIACORE® T100 Software Handbook BR1006-48 Edition AE.
(§2) The resultant variants were expressed using M103202L889-SK1 as light chain and their affinity to human and cynoFcγRs were evaluated (Table 20).

[2] = molecular target: T2, human FcγRIIaR extracellular domain …; experiment: as above
Protocol: as §1, §2

[3] = molecular target: T3, human FcγRIIb extracellular domain with …; experiment: as above
Protocol: as §1, §2

[4] = molecular target: T4, human FcγRIIaH extracellular domain …; experiment: as above
Protocol: as §1, §2

[5] = molecular target: T5, cynomolgus monkey FcγRIIa1 …; experiment: as above
Protocol: as §1, §2

[6] = molecular target: T6, cynomolgus monkey FcγRIIa2 …; experiment: as above
Protocol: as §1, §2

[7] = molecular target: T7, cynomolgus monkey FcγRIIa2 …; experiment: SPR (BIACORE), antibody captured, FcγR as analyte, 25°C
Protocol: as §1
(§3) The behavior of interacting molecules according to the 1:1 binding model on BIACORE® can be described by Equation 1: Req=C·R max/(KD+C)+RI, wherein, Req is a plot of steady-state binding levels to analyte concentration. C is concentration, RI is bulk refractive index contribution in the sample, and Rmax is analyte binding capacity of the surface. When this equation is rearranged, KD can be expressed as Equation 2: KD=C·Rmax/(Req−RI)−C. KD can be calculated by substituting the values of Rmax, RI, and C into Equation 1 or Equation 2. From the current measurement conditions, RI=0, C=2 μmol/L can be used.

[8] = molecular target: T8, human FcγRIIaR extracellular domain, …; experiment: as above
Protocol: as §1, §3

Binder	KD fold (SG1 = 1) [1]	KD fold (SG1 = 1) [2]	KD fold (SG1 = 1) [3]	KD fold (SG1 = 1) [4]	KD fold (SG1 = 1) [5]	KD fold (SG1 = 1) [6]	Kd [7]	Kd [8]
B1	0.11 fold	0.5 fold	3.8 fold	0.5 fold	1.4 fold	2.2 fold	–	–
B2	–	–	–	–	–	–	5.1 µM	1.1 µM
B3	–	–	–	–	–	–	3.7 µM	1.8 µM
B4	–	–	–	–	–	–	4 µM	1.1 µM
B5	–	–	–	–	–	–	1.4 µM	1.9 µM
